Experimental data published in patent US20070066682A1, “Arylalkylamine vanadium (V) salts for the treatment and/or prevention of Diabetes mellitus” (priority 2005, published 2007).

Columns and labels:
Assay type in all cases: biochemical
[1] = substrate: NCc1ccccc1; assay: Kinetic parameters, human SSAO/VAP-1; details: other: Human SSAO/VAP-1
Description: (§1) The continuous spectrophotometric detection of SSAO-dependent H2O2 production based on a peroxidase-coupled reaction was performed as previously described by Abella et al. (2004, Diabetologia 47: 429-438) and following the procedure described by Holt et al., (1997, Anal. Biochem. 244: 384-392).
(§2) Compounds listed in Table 1 were prepared according to the methods described above, purity was determined by HPLC at 220 nm, molecular weight calculated by mass spectrometer. Human and mouse SSAO activity was determined by detecting the production of hydrogene peroxide in the presence of the different compounds present at 1 mM for human and 100 μM for mice activity measurements. Compounds in Table 2″ were similarly assayed. Values are means of percentages relative to benzylamine-related hydrogen production. Kinetic Parameters for select compounds are set forth in Table 3 (Mouse SSAO) and Table 4 (Human SSAO).

[2] = substrate: NCCc1ccc(F)cc1; assay: Kinetic parameters, human SSAO/VAP-1; details: other: Human SSAO/VAP-1
Description: as §1, §2

[3] = substrate: NCc1ccc(F)cc1; assay: Kinetic parameters, human SSAO/VAP-1; details: other: Human SSAO/VAP-1
Description: as §1, §2

[4] = substrate: NCCc1ccccc1; assay: Kinetic parameters, human SSAO/VAP-1; details: other: Human SSAO/VAP-1
Description: as §1, §2

[5] = substrate: NCCCCc1ccccc1; assay: Kinetic parameters, human SSAO/VAP-1; details: other: Human SSAO/VAP-1
Description: as §1, §2

[6] = substrate: NCCCc1ccccc1; assay: Kinetic parameters, human SSAO/VAP-1; details: other: Human SSAO/VAP-1
Description: as §1, §2

[7] = substrate: NCc1ccccc1; assay: Kinetic parameters, mouse SSAO/VAP-1; details: other: Mouse SSAO/VAP-1
Description: as §1, §2

[8] = substrate: NCCc1ccc(F)cc1; assay: Kinetic parameters, mouse SSAO/VAP-1; details: other: Mouse SSAO/VAP-1
Description: as §1, §2

[9] = substrate: NCc1ccc(F)cc1; assay: Kinetic parameters, mouse SSAO/VAP-1; details: other: Mouse SSAO/VAP-1
Description: as §1, §2

[10] = substrate: NCCc1ccccc1; assay: Kinetic parameters, mouse SSAO/VAP-1; details: other: Mouse SSAO/VAP-1
Description: as §1, §2

[11] = substrate: NCCCCc1ccccc1; assay: Kinetic parameters, mouse SSAO/VAP-1; details: other: Mouse SSAO/VAP-1
Description: as §1, §2

[12] = substrate: NCCCc1ccccc1; assay: Kinetic parameters, mouse SSAO/VAP-1; details: other: Mouse SSAO/VAP-1
Description: as §1, §2

B1: Human SSAO/VAP-1 (Homo sapiens) (protein)
chain: MNQKTILVLLILAVITIFALVCVLLVGRGGDGGEPSQLPHCPSVSPSAQPWTHPGQSQLFADLSREELTAVMRFLTQRLGPGLVDAAQARPSDNCVFSVELQLPPKAAALAHLDRGSPPPAREALAIVFFGRQPQPNVSELVVGPLPHPSYMRDVTVERHGGPLPYHRRPVLFQEYLDIDQMIFNRELPQASGLLHHCCFYKHRGRNLVTMTTAPRGLQSGDRATWFGLYYNISGAGFFLHHVGLELLVNHKALDPARWTIQKVFYQGRYYDSLAQLEAQFEAGLVNVVLIPDNGTGGSWSLKSPVPPGPAPPLQFYPQGPRFSVQGSRVASSLWTFSFGLGAFSGPRIFDVRFQGERLVYEISLQEALAIYGGNSPAAMTTRYVDGGFGMGKYTTPLTRGVDCPYLATYVDWHFLLESQAPKTIRDAFCVFEQNQGLPLRRHHSDLYSHYFGGLAETVLVVRSMSTLLNYDYVWDTVFHPSGAIEIRFYATGYISSAFLFGATGKYGNQVSEHTLGTVHTHSAHFKVDLDVAGLENWVWAEDMVFVPMAVPWSPEHQLQRLQVTRKLLEMEEQAAFLVGSATPRYLYLASNHSNKWGHPRGYRIQMLSFAGEPLPQNSSMARGFSWERYQLAVTQRKEEEPSSSSVFNQNDPWAPTVDFSDFINNETIAGKDLVAWVTAGFLHIPHAEDIPNTVTVGNGVGFFLRPYNFFDEDPSFYSADSIYFRGDQDAGACEVNPLACLPQAAACAPDLPAFSHGGFSHN
[1]
  Km: 277 ± 33 µM
  Vmax: 0.294 µmol/min/mg
  kcat: 0.42 s⁻¹
  kcat/Km: 1530 M⁻¹ s⁻¹
[2]
  Km: 2805 ± 613 µM
  Vmax: 0.263 µmol/min/mg
  kcat: 0.38 s⁻¹
  kcat/Km: 135 M⁻¹ s⁻¹
[3]
  Km: 647 ± 32 µM
  Vmax: 0.27 µmol/min/mg
  kcat: 0.39 s⁻¹
  kcat/Km: 600 M⁻¹ s⁻¹
[4]
  Km: 2918 ± 1910 µM
  Vmax: 0.05 µmol/min/mg
  kcat: 0.07 s⁻¹
  kcat/Km: 25 M⁻¹ s⁻¹
[5]
  Km: 430 ± 110 µM
  Vmax: 0.577 µmol/min/mg
  kcat: 0.83 s⁻¹
  kcat/Km: 1930 M⁻¹ s⁻¹
[6]
  Km: 1339 ± 140 µM
  Vmax: 0.156 µmol/min/mg
  kcat: 0.22 s⁻¹
  kcat/Km: 168 M⁻¹ s⁻¹

B2: Mouse SSAO/VAP-1 (Mus musculus) (protein)
chain: MTQKTTLVLLALAVITIFALVCVLLAGRSGDGGGLSQPLHCPSVLPSVQPRTHPSQSQPFADLSPEELTAVMSFLTKHLGPGLVDAAQARPSDNCVFSVELQLPAKAAALAHLDRGGPPPVREALAIIFFGGQPKPNVSELVVGPLPHPSYMRDVTVERHGGPLPYYRRPVLDREYQDIEEMIFHRELPQASGLLHHCCFYKHQGQNLLTMTTAPRGLQSGDRATWFGLYYNLSGAGFYPHPIGLELLIDHKALDPALWTIQKVFYQGRYYESLTQLEDQFEAGLVNVVLVPNNGTGGSWSLKSSVPPGPAPPLQFHPQGPRFSVQGSQVSSSLWAFSFGLGAFSGPRIFDIRFQGERVAYEISVQEAIALYGGNSPASMSTCYVDGSFGIGKYSTPLIRGVDCPYLATYVDWHFLLESQAPKTLRDAFCVFEQNQGLPLRRHHSDFYSHYFGGVVGTVLVVRSVSTLLNYDYIWDMVFHPNGAIEVKFHATGYISSAFFFGAGEKFGNRVGAHTLGTVHTHSAHFKVDLDVAGLKNWAWAEDMAFVPTIVPWQPEYQMQRLQVTRKLLETEEEAAFPLGGATPRYLYLASNHSNKWGHRRGYRIQILSFAGKPLPQESPIEKAFTWGRYHLAVTQRKEEEPSSSSIFNQNDPWTPTVNFTDFISNETIAGEDLVAWVTAGFLHIPHAEDIPNTVTAGNSVGFFLRPYNFFDEDPSFHSADSIYFREGQDATACEVNPLACLSQTATCAPEIPAFSHGGFAYRDN
[7]
  Km: 27.5 ± 9.9 µM
  kcat/Km: 3780 M⁻¹ s⁻¹
[8]
  Km: 31 ± 10 µM
  kcat/Km: 488 M⁻¹ s⁻¹
[9]
  Km: 29.1 ± 4.8 µM
  kcat/Km: 1490 M⁻¹ s⁻¹
[10]
  Km: 4.8 ± 13 µM
  kcat/Km: 3040 M⁻¹ s⁻¹
[11]
  Km: 8.8 ± 2.9 µM
  kcat/Km: 3910 M⁻¹ s⁻¹
[12]
  Km: 10 ± 1.2 µM
  kcat/Km: 1670 M⁻¹ s⁻¹
